Experimental data: patent US20100034831A1 (DOMANTIS, published 2010)
One block for each binder: values may come before it.

Target: T1, mouse TNFR1 on L929 fibroblasts (mouse, UniProt P25118 30-454)
T1 sequence (looked up): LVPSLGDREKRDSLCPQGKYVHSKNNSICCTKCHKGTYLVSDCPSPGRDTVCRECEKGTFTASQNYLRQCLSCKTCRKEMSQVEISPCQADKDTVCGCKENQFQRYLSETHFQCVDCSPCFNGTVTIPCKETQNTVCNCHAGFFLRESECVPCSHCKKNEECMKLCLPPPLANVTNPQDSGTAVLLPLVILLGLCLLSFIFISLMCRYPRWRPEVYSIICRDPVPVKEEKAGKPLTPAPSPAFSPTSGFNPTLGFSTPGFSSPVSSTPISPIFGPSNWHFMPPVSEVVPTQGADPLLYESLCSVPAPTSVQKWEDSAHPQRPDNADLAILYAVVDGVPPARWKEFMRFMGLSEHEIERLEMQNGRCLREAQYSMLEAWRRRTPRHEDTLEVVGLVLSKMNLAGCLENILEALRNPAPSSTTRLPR
Test: cell-based or functional assay

Potency, ND50 L929 assay: 5 nM
B1: TAR2m-15-12 (anti-TNFR1 dAb) (other)
chain: DIQMTQSPSSLSASVGDRVTITCRASQYIHTSVQWYQQKPGKAPKLLIYGSSRLHSGVPSRFSGSGSGTDFTLTISSLQPEDFATYYCQQNHYSPFTYGQGTKVEIKR

Potency, ND50 L929 assay: 1 nM
B2: TAR2m-21-23 (anti-TNFR1 dAb monomer) (other)
VH: EVQLLESGGGLVQPGGSLRLSCAASGFTFNRYSMGWLRQAPGKGLEWVSRIDSYGRGTYYEDPVKGRFSISRDNSKNTLYLQMNSLRAEDTAVYYCAKISQFGSNAFDYWGQGTQVTVSS

Potency, ND50 L929 assay: 1 nM
B3: PEG DOM1M (anti-TNFR1 dAb monomer TAR2m21-23 PEGylated with a 40 kDa polyethyleneglycol) (other)
VH: B2 VH
modifications: PEGylated with a 40 kDa polyethyleneglycol (attachment site not stated)
